Measured values published in US20240190975A1.

Biological target: human CCR8 (human) (UniProt P51685)
Assay: cell-based or functional assay

UniProt P51685, sequence (P51685 whole entry): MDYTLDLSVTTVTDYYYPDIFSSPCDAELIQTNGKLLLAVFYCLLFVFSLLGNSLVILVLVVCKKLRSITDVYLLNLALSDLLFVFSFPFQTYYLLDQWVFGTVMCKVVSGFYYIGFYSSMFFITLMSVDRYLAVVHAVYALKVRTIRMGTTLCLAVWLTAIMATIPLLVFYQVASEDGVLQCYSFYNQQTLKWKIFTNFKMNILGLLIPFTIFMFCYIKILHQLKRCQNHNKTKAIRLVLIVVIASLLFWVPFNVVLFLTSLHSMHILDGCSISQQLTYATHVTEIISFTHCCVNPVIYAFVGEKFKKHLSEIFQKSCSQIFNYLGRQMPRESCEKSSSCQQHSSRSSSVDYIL

“anti-human CCR8 antibody (clone name: L263G8, BioLegend, Inc.)” gave an inhibition of the cytotoxic activity of aCCR8-2-CAR-12-expressing KHYG-1 cells against ATN-1 cells (calcein), antibody at 33 nM added 10 minutes before the effector cells greater than 50%.
